B1: ^coreAFG3L2^WB/PI/Δ781−797 (domain or fragment)
chain: not shown
B2: ^coreAFG3L2^WB/PI (human AFG3L2 catalytic core, residues 272-797, E408Q/E575Q) (domain or fragment)
chain: not shown

How the values were obtained:
SEC = biological target: the molecule itself; experiment: SEC
cryo-EM structure = biological target: the molecule itself; experiment: cryo-EM structure

Row | Protein | binding result (SEC) | stoichiometry N (cryo-EM structure)
1 | B1 | binds | 
2 | B2 |  | 6
